In article PMC4175327, “Distinguishing Closely Related Amyloid Precursors Using an RNA Aptamer*”:

Assays:
[1] = biological target: T1, human beta2-microglobulin (hβ2m), monomer (human, UniProt P61769 21-119); test: intrinsic Trp fluorescence quenching; EC50; Hill slope 0.99 ± 0.06; 1 uM protein; 50 mM MES, 120 mM NaCl, pH 6.2; fluorescence and NMR at 25 °C (NMR plus 0.02% azide, 0.1 mM EDTA, 10% D2O); SPR temperature not stated; details: tags: biotin (N terminus, Lys-7 and/or Lys-92), immobilized, for SPR; hairpin with bulges, U tetraloop
[2] = biological target: T1, human beta2-microglobulin (hβ2m), …; test: intrinsic Trp fluorescence quenching; 1 uM protein; 50 mM MES, 120 mM NaCl, pH 6.2; fluorescence and NMR at 25 °C (NMR plus 0.02% azide, 0.1 mM EDTA, 10% D2O); SPR temperature not stated; details: tags: biotin (N terminus, Lys-7 and/or Lys-92), immobilized, for SPR; hairpin with bulges, U tetraloop

T1 sequence (P61769 21-119): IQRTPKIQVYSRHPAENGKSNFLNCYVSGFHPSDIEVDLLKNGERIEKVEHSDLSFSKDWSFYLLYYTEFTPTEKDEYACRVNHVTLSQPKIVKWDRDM

Row | Binder | apparent K (half saturation) [1] [nM] | binding result [2]
1 | GGGAAUUCUGAGCUACUCCCUUUUGGGCCCGGCUAUGAUUCCCG (XNA, 2'-fluoro C and U (3'-terminal G is ribo)) [2'F B6min] | 223 ± 10 | –
2 | GGGAAUUCUGAGCUACUCCCUUUUGGGCCCGGCUAUGAUUCCCG (structured_RNA, none (2'OH)) [2'OH B6min] | – | no binding
